# Reference: article PMC6468240
# pKd: −log10 of the molar value.
# Tests used:
# [1] = biological target: recombinant NgAgo-His (Natronobacterium gregoryi); experiment: SPR
# [2] = biological target: recombinant E. coli recA, His-tagged (E. coli) (UniProt P0A7G6); experiment: SPR
Substance,pKd [1],koff [1] [s⁻¹],kon [1] [M⁻¹ s⁻¹],pKd [2],koff [2] [s⁻¹],kon [2] [M⁻¹ s⁻¹]
"recombinant E. coli recA, His-tagged (from UniProt P0A7G6 1-353) (natural protein)",7.37,0.00024,5740,–,–,–
recombinant NgAgo-His (natural protein),–,–,–,7.51,0.000707,23200
